Laboratory results taken from the Human Domainome abundance scans (Beltran et al. 2025).
± gives the uncertainty stated by the source.

Experiment: abundance fitness (aPCA) (normalised: wild type 0, dead -1); higher = more abundant; growth selection in yeast, the domain comes from the species named
Conditions: Homo sapiens

Row | Substance | abundance fitness
1 | Scaffold attachment factor B2 V64R, Q14151 | -0.14 ± 0.09
2 | Scaffold attachment factor B2 V64S, Q14151 | -0.242 ± 0.084
3 | Scaffold attachment factor B2 V64T, Q14151 | -0.123 ± 0.11
4 | Scaffold attachment factor B2 V64W, Q14151 | -0.025 ± 0.086
5 | Scaffold attachment factor B2 V64Y, Q14151 | -0.274 ± 0.31
6 | Tyrosine-protein kinase Lck D77E, P06239 | -0.02 ± 0.13
7 | Tyrosine-protein kinase Lck E83K, P06239 | -0.049 ± 0.12
8 | Tyrosine-protein kinase Lck E92N, P06239 | -0.047 ± 0.14
9 | Tyrosine-protein kinase Lck E96D, P06239 | 0.069 ± 0.16
10 | Tyrosine-protein kinase Lck E108T, P06239 | 0.034 ± 0.12
11 | Tyrosine-protein kinase Lck F110Y, P06239 | 0.001 ± 0.19
12 | Tyrosine-protein kinase Lck F113S, P06239 | 0.094 ± 0.071
13 | Tyrosine-protein kinase Lck F115Y, P06239 | 0.148 ± 0.12
14 | Tyrosine-protein kinase Lck G78D, P06239 | -0.088 ± 0.099
15 | Tyrosine-protein kinase Lck G81S, P06239 | -0.096 ± 0.078
16 | Tyrosine-protein kinase Lck H70Y, P06239 | -0.029 ± 0.12
17 | Tyrosine-protein kinase Lck H76T, P06239 | -0.17 ± 0.1
18 | Tyrosine-protein kinase Lck I67A, P06239 | -0.465 ± 0.1
19 | Tyrosine-protein kinase Lck I67C, P06239 | -0.193 ± 0.12
20 | Tyrosine-protein kinase Lck I67D, P06239 | -0.506 ± 0.21

Row | Substance | abundance fitness
21 | Tyrosine-protein kinase Lck I67E, P06239 | -0.146 ± 0.11
22 | Tyrosine-protein kinase Lck I67F, P06239 | -0.102 ± 0.16
23 | Tyrosine-protein kinase Lck I67G, P06239 | -0.552 ± 0.079
24 | Tyrosine-protein kinase Lck I67H, P06239 | -0.353 ± 0.13
25 | Tyrosine-protein kinase Lck I67K, P06239 | -0.442 ± 0.14
26 | Tyrosine-protein kinase Lck I67N, P06239 | -0.206 ± 0.15
27 | Tyrosine-protein kinase Lck I67P, P06239 | -0.607 ± 0.15
28 | Tyrosine-protein kinase Lck I67Q, P06239 | -0.394 ± 0.14
29 | Tyrosine-protein kinase Lck I67R, P06239 | -0.263 ± 0.097
30 | Tyrosine-protein kinase Lck I67S, P06239 | -0.378 ± 0.08
31 | Tyrosine-protein kinase Lck I67T, P06239 | 0.151 ± 0.16
32 | Tyrosine-protein kinase Lck I67W, P06239 | -0.078 ± 0.11
33 | Tyrosine-protein kinase Lck I67Y, P06239 | 0.097 ± 0.25
34 | Tyrosine-protein kinase Lck K99L, P06239 | -0.125 ± 0.074
35 | Tyrosine-protein kinase Lck P74A, P06239 | -0.414 ± 0.1
36 | Tyrosine-protein kinase Lck Q87R, P06239 | -0.01 ± 0.077
37 | Tyrosine-protein kinase Lck Q101H, P06239 | -0.328 ± 0.16
38 | Tyrosine-protein kinase Lck R89Q, P06239 | 0.125 ± 0.29
39 | Tyrosine-protein kinase Lck S71D, P06239 | -0.095 ± 0.14
40 | Tyrosine-protein kinase Lck S75R, P06239 | -0.064 ± 0.081
